Publication doi:10.1101/2021.09.05.459021 (bioRxiv, 2021)
“And” between values parts separate entries of the source, which are not always exact repeats. Equal entries are not always repeated. One block for each molecule: values may come before it.

Legend:
[1] = target: mTTYH3 ECD1-T4L-ECD2 (mouse | bacteriophage T4) (UniProt Q6P5F7); assay: cross-linking
EGFP fusion of KCNH1 = EGFP fusion of KCNH1 (UniProt O95259); assay: single-molecule subunit counting
SEC = target: the molecule itself; assay: SEC
[2] = target: the molecule itself; assay: single-molecule subunit counting
native gel or EMSA = target: the molecule itself; assay: native gel or EMSA

stoichiometry N [1]: 4
Molecule: mTTYH3 ECD1-T4L-ECD2 (from UniProt Q6P5F7 107-209; Q6P5F7 260-386) (domain or fragment)

stoichiometry N (EGFP fusion of KCNH1): 4
Molecule: EGFP fusion of KCNH1 (from UniProt O95259 1-989) (natural protein)

B1: mTTYH3-EGFP (C-terminal EGFP fusion of mouse TTYH3), expressed in HEK 293 cells (natural protein, UniProt Q6P5F7 1-524, looked up)
chain: MAGVSYAAPWWVSLLHRLPHFDLRWEATSSQFRPEDADYQQALLLLGATALACLALDLLFLLFYSFWLCCRRRKTDEHLDADCCCTAWCVIITTLVCSAGIAVGFYGNGETSDGIHRATYSLRHANRTVAGVQDRVWDTAAALNRTAEPNLQSLERQLAGRQEPLRAVQRLQTLLGTLLGYTAAIPFWRNPGVSLEVLAEQVDLYDWYRWLGYLGLLLLDVIICLLVLVGLIRSSKGILVGVCLLGVLALVISWGALGLELAVSVGSSDFCVDPDTFVTKMVEEHSVLSGDILQYYLACSPRATNPFQQKLSGSHKALVEMQDVVAELLRNVPREHPATKDPLLRVQEVLNGTEVNLQHLTALVDCRSLHLDYVQALTGFCYDGVEGLIYLALFSFVTALMFSSIVCSIPHTWQQKRGPDDDGEEETAPGPRQAHDSLYRVHMPSLYSCGSSYGSEASIPAAAHTVSNAPVTEYMSQNANFQNPRCENTPLIGRESPPPSYTSSMRAKYLATSQPRPDSSGSGH
ratio of tetramers to dimers (SEC): ~1.5
stoichiometry N (SEC): 4 and 2

B2: mTTYH3-EGFP (C-terminal EGFP fusion of mouse TTYH3), expressed in Xenopus oocytes (natural protein, UniProt Q6P5F7 1-524, looked up)
chain: MAGVSYAAPWWVSLLHRLPHFDLRWEATSSQFRPEDADYQQALLLLGATALACLALDLLFLLFYSFWLCCRRRKTDEHLDADCCCTAWCVIITTLVCSAGIAVGFYGNGETSDGIHRATYSLRHANRTVAGVQDRVWDTAAALNRTAEPNLQSLERQLAGRQEPLRAVQRLQTLLGTLLGYTAAIPFWRNPGVSLEVLAEQVDLYDWYRWLGYLGLLLLDVIICLLVLVGLIRSSKGILVGVCLLGVLALVISWGALGLELAVSVGSSDFCVDPDTFVTKMVEEHSVLSGDILQYYLACSPRATNPFQQKLSGSHKALVEMQDVVAELLRNVPREHPATKDPLLRVQEVLNGTEVNLQHLTALVDCRSLHLDYVQALTGFCYDGVEGLIYLALFSFVTALMFSSIVCSIPHTWQQKRGPDDDGEEETAPGPRQAHDSLYRVHMPSLYSCGSSYGSEASIPAAAHTVSNAPVTEYMSQNANFQNPRCENTPLIGRESPPPSYTSSMRAKYLATSQPRPDSSGSGH
stoichiometry N [2]: 4

B3: FLAG-tagged mouse TTYH3 (mTTYH3) (natural protein, UniProt Q6P5F7 1-524, looked up)
chain: MAGVSYAAPWWVSLLHRLPHFDLRWEATSSQFRPEDADYQQALLLLGATALACLALDLLFLLFYSFWLCCRRRKTDEHLDADCCCTAWCVIITTLVCSAGIAVGFYGNGETSDGIHRATYSLRHANRTVAGVQDRVWDTAAALNRTAEPNLQSLERQLAGRQEPLRAVQRLQTLLGTLLGYTAAIPFWRNPGVSLEVLAEQVDLYDWYRWLGYLGLLLLDVIICLLVLVGLIRSSKGILVGVCLLGVLALVISWGALGLELAVSVGSSDFCVDPDTFVTKMVEEHSVLSGDILQYYLACSPRATNPFQQKLSGSHKALVEMQDVVAELLRNVPREHPATKDPLLRVQEVLNGTEVNLQHLTALVDCRSLHLDYVQALTGFCYDGVEGLIYLALFSFVTALMFSSIVCSIPHTWQQKRGPDDDGEEETAPGPRQAHDSLYRVHMPSLYSCGSSYGSEASIPAAAHTVSNAPVTEYMSQNANFQNPRCENTPLIGRESPPPSYTSSMRAKYLATSQPRPDSSGSGH
stoichiometry N (native gel or EMSA): 2 and 4

B4: mTTYH1-EGFP (C-terminal EGFP fusion of mouse TTYH1), expressed in HEK 293 cells (natural protein, UniProt Q9D3A9 1-450, looked up)
chain: MGAPPGYRPSAWVHLLHQLPRADFQLRPVPSGFAPRDQEYQQALLLVAALAGLGLGLSLIFIAVYLIRFCCCRPPEPHGAKSPPPGGGCVTWSCIAALLVGCAGIGIGFYGNSETSDGVSQLSSALLHANHTLSTIDDVVLETVERLGEAVKTELTTLEEVLSVRMELVAATRGARRQAEAAAQYLQGLAFWQGVSLSPVQVAEDVTFVEEYRWLAYVLLLLLVLLVCLFTLLGLAKQSKWLVVVMTAMSLLVLVLSWGSMGLEAATAVGLSDFCSNPDTYVLNLTQEETGLSSDILSYYFLCNQAVSNPFQQRLTLSQRALASIHSQLQGLEREAIPQFSAAQKPLLSLEETLNVTERSFHQLVALLHCRSLHKDYGSALRGLCEDALEGLLFLMLFSLLSAGALATTLCSLPRAWALFPPSDDYDDTDDDDPFNPQESKRFVQWQSSI
stoichiometry N (SEC): 4 and 2

B5: mTTYH1-EGFP (C-terminal EGFP fusion of mouse TTYH1), expressed in Xenopus oocytes (natural protein, UniProt Q9D3A9 1-450, looked up)
chain: MGAPPGYRPSAWVHLLHQLPRADFQLRPVPSGFAPRDQEYQQALLLVAALAGLGLGLSLIFIAVYLIRFCCCRPPEPHGAKSPPPGGGCVTWSCIAALLVGCAGIGIGFYGNSETSDGVSQLSSALLHANHTLSTIDDVVLETVERLGEAVKTELTTLEEVLSVRMELVAATRGARRQAEAAAQYLQGLAFWQGVSLSPVQVAEDVTFVEEYRWLAYVLLLLLVLLVCLFTLLGLAKQSKWLVVVMTAMSLLVLVLSWGSMGLEAATAVGLSDFCSNPDTYVLNLTQEETGLSSDILSYYFLCNQAVSNPFQQRLTLSQRALASIHSQLQGLEREAIPQFSAAQKPLLSLEETLNVTERSFHQLVALLHCRSLHKDYGSALRGLCEDALEGLLFLMLFSLLSAGALATTLCSLPRAWALFPPSDDYDDTDDDDPFNPQESKRFVQWQSSI
stoichiometry N [2]: 4

B6: FLAG-tagged mouse TTYH1 (mTTYH1) (natural protein, UniProt Q9D3A9 1-450, looked up)
chain: MGAPPGYRPSAWVHLLHQLPRADFQLRPVPSGFAPRDQEYQQALLLVAALAGLGLGLSLIFIAVYLIRFCCCRPPEPHGAKSPPPGGGCVTWSCIAALLVGCAGIGIGFYGNSETSDGVSQLSSALLHANHTLSTIDDVVLETVERLGEAVKTELTTLEEVLSVRMELVAATRGARRQAEAAAQYLQGLAFWQGVSLSPVQVAEDVTFVEEYRWLAYVLLLLLVLLVCLFTLLGLAKQSKWLVVVMTAMSLLVLVLSWGSMGLEAATAVGLSDFCSNPDTYVLNLTQEETGLSSDILSYYFLCNQAVSNPFQQRLTLSQRALASIHSQLQGLEREAIPQFSAAQKPLLSLEETLNVTERSFHQLVALLHCRSLHKDYGSALRGLCEDALEGLLFLMLFSLLSAGALATTLCSLPRAWALFPPSDDYDDTDDDDPFNPQESKRFVQWQSSI
stoichiometry N (native gel or EMSA): 2 and 4
